Measured values published in paper PMC7037459, “Constitutive Activation of Guanylate Cyclase by the G86R GCAP1 Variant Is Due to “Locking” Cation-π Interactions that Impair the Activator-to-Inhibitor Structural Transition” (International Journal of Molecular Sciences, 2020).
Residue numbers refer to the chain shown, from its start. Numbers in names are those of the source.

B1: Guanylate Cyclase activating protein 1 (GCAP1) WT (natural protein)
chain: MGNVMSGKSVEELSSTECHQWYKKFMTECPSGQLTLYEFRQFFGLKNLSPSASQYVEQMFETFDFNKDGYIDFMEYVAALSLVLKGKVEQKLRWYFKLYDVDGNGCIDRDELLTIIQAIRAINPCSDTTMTAEEFTDTVFSKIDVNGDGELSLEEFIEGVQKDQMLLDTLTRSLDLTRIVRRLQNGEQDEEGADEAAEAAG
modifications: myristoylated forms were obtained by co-transformation with yeast N-myristoyl transferase; which form stood in each experiment is not stated
B2: GCAP1 G86R (natural protein, human, UniProt P43080 1-201, looked up)
chain: B1 chain with G86R
modifications: myristoylated forms were obtained by co-transformation with yeast N-myristoyl transferase; which form stood in each experiment is not stated
B3: GCAP1 G86R+W94F (natural protein, human, UniProt P43080 1-201, looked up)
chain: B1 chain with G86R, W94F
modifications: myristoylated forms were obtained by co-transformation with yeast N-myristoyl transferase; which form stood in each experiment is not stated
B4: GCAP1 G86R+W94L (natural protein, human, UniProt P43080 1-201, looked up)
chain: B1 chain with G86R, W94L
modifications: myristoylated forms were obtained by co-transformation with yeast N-myristoyl transferase; which form stood in each experiment is not stated

Assays:
[1] = biological target: T1, Recombinant human Guanylate Cyclase 1 (human, UniProt Q02846 52-1103)
T1 sequence (looked up): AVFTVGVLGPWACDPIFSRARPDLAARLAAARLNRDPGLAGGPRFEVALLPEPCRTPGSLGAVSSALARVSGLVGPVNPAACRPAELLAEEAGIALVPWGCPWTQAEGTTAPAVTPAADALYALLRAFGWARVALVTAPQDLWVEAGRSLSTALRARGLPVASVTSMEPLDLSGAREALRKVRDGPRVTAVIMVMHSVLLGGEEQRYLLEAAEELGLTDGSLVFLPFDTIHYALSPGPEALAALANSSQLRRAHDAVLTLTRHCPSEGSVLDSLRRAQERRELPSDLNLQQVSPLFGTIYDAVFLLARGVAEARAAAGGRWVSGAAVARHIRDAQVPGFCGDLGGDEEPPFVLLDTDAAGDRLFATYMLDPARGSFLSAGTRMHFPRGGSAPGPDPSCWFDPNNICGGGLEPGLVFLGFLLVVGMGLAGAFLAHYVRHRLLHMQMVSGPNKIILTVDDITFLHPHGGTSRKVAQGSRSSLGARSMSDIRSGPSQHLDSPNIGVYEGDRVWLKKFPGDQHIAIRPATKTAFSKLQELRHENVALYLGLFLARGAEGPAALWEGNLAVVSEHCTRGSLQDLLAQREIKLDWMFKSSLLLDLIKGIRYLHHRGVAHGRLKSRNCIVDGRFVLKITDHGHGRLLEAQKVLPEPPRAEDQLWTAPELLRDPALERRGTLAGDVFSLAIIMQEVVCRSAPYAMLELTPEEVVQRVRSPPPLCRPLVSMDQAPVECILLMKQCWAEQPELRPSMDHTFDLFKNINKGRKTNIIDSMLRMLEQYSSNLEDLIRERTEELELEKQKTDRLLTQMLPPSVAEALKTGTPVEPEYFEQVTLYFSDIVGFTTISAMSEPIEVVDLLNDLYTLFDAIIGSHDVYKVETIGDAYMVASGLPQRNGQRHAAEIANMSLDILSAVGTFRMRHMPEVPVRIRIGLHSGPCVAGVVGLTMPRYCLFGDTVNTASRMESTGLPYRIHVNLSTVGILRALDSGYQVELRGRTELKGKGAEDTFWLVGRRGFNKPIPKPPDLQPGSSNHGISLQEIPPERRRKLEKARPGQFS

[2] = biological target: T1, Recombinant human Guanylate Cyclase 1; test: cell-based or functional assay

GC activity (cGMP synthesis) of cell membranes containing GC with ~10 µM GCAP1, 1 mM Mg2+ and 2 mM EGTA (absence of Ca2+) (nmol cGMP*min^−1*mg protein^−1) [1] | fold decrease of cGMP synthesis at 33 µM free Ca2+ (inhibiting conditions) against the maximal activation without Ca2+ [1] [fold] | fold decrease of cGMP synthesis at 33 µM free Ca2+ against the respective maximal activation without Ca2+ [2] [fold] | Binder
20.4 | 34 | – | B1
– | – | 2 | B2
– | – | 3 | B3
– | – | 4 | B4
